The target of this experiment is T1, CTI2 (Arabidopsis thaliana, UniProt Q9M8T2).
T1 chain: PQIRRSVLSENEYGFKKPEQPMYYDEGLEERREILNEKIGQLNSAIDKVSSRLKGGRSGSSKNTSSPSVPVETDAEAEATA
Description: MST.

B1: alphaCT (protein)
chain: INMKKREAVFSDSRKLQGEVDKLKEQILKAKETSTEAEPSSEVLNEMIEKLKSEIDDEYTEAAIAVGLEERLTAMREEFSKASSEEHLMHPVLIEKIEKLKEEFNTRLTDAPNYESLKSKLNMLRDFSRAKAASEATSLKKEINKRFQEAVDRPEIREKVEAIKAEVASSGASSFDELPDALKEKVLKTKGEVEAEMAGVLKSMGLELDAVKQNQKDTAEQIYAANENLQEKLEKLNQEITSKIEEVVRTPEIKSMVELLKVETAKASKTPGVTEAYQKIEALEQQIKQKIAEALNTSGLQEKQDELEKELAAARELAAEESDGSVKEDDDDDEDSSESGKSEMVNPSFA
In turn, B1 had a dissociation constant Kd of 1400 nM.

As a reminder, the Kd is the constant that tells how readily two partners part at equilibrium. Lower therefore signals tighter binding.
